Measurements as given in EP2330125A2.

Key:
[1] = target: T1, CGRP receptor (Homo sapiens (Human)), Q16602; assay: CGRP receptor binding assay
T1 chain 1: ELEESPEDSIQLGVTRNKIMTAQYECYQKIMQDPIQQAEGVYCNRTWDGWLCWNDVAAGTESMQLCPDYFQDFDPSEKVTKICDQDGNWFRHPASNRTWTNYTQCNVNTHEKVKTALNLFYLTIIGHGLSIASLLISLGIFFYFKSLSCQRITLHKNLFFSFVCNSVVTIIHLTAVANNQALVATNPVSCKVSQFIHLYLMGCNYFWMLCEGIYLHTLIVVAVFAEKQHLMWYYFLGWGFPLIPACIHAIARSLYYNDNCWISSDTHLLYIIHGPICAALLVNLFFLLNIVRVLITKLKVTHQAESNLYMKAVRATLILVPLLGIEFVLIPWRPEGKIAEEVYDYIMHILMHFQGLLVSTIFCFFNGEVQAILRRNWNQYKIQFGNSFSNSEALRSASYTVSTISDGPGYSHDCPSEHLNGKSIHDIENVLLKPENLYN
T1 chain 2: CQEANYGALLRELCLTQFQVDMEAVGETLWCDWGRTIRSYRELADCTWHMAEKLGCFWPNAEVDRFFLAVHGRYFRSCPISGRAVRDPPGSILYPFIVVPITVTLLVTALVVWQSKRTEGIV

calcitonin receptor [2] = assay: CT receptor binding assay
calcitonin receptor, sequence (P30988 whole entry): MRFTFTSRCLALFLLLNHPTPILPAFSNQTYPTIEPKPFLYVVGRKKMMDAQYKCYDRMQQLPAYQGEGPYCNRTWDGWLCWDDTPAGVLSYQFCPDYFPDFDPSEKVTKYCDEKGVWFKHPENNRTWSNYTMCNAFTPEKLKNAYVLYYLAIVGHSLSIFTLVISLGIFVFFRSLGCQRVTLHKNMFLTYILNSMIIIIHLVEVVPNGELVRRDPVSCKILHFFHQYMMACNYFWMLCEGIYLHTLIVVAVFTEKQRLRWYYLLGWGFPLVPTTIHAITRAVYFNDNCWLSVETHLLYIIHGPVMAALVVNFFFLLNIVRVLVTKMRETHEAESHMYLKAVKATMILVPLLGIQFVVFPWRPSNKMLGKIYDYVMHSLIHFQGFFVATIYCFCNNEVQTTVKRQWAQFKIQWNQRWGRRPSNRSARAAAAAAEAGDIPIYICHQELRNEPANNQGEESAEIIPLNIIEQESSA

amylin receptor (rat) [3] = assay: amylin receptor binding assay
calcitonin receptor [4] = assay: calcitonin receptor binding assay
calcitonin receptor [5] = assay: cell-based or functional assay
amylin receptor (rat) [6] = assay: 125I-amylin displacement, rat nucleus accumbens membranes
[7] = target: GLP-1/GIP/CT (receptors of the 'GLP-1/GIP/CT cyclase' assay); assay: cell-based or functional assay

## DFMGWMDFGKRKCNTATCATQRLANELVRLQTYPRTNVGSNTY (modifications not checked) [CCK/Amylin-sCT hybrid DF(P-CH2SO3)… …]
[1]
  IC50: 4.4 nM
Calcitonin receptor [2]
  IC50: 0.044 nM
Amylin receptor (rat) [3]
  IC50: 0.083 nM

## DFMGWMDFGKRKCNTATCATQRLANELVRLQTYPRTNVGSNTY (modifications not checked) [27(p-CH2SO3)-PheCCK8(26-33),G,K,R,15Glu,hAmy(1-17),18Arg,sCT(18-26),hAmy(32-37)]
Calcitonin receptor [4]
  Receptor Binding: 0.04

B1: [#Suc-(bAla)-PYY-(3-36), amide] [#NH-Des-Lys1-Rat Amylin, amide] (peptide)
chain 1: not shown
chain 2: CNTATCATQRLANFLVRSSNNLGPVLPPTNVGSNTY
modifications: not checked
Calcitonin receptor [5]
  CT cyclase: 645
Calcitonin receptor [4]
  Receptor Binding: 46

## KCNTATCATQRLANFLVRSSNNLGPVLPPTNVGSNTY (modifications not checked) [Rat amylin]
Amylin receptor (rat) [6]
  Receptor Binding: 0.05
Calcitonin receptor [5]
  CT cyclase: 326
[7]
  GLP-1/GIP/CT cyclase: 5
Calcitonin receptor [4]
  Receptor Binding: 3
